Measured values from patent US20100167314A1.

Molecular target: human pNBC1 (pancreas-type Na/HCO3 cotransporter 1) (human), Q9Y6R1
Test: cell-based or functional assay

Sequence of human pNBC1 (pancreas-type Na/HCO3 cotransporter 1) (human), Q9Y6R1 (Q9Y6R1 whole entry): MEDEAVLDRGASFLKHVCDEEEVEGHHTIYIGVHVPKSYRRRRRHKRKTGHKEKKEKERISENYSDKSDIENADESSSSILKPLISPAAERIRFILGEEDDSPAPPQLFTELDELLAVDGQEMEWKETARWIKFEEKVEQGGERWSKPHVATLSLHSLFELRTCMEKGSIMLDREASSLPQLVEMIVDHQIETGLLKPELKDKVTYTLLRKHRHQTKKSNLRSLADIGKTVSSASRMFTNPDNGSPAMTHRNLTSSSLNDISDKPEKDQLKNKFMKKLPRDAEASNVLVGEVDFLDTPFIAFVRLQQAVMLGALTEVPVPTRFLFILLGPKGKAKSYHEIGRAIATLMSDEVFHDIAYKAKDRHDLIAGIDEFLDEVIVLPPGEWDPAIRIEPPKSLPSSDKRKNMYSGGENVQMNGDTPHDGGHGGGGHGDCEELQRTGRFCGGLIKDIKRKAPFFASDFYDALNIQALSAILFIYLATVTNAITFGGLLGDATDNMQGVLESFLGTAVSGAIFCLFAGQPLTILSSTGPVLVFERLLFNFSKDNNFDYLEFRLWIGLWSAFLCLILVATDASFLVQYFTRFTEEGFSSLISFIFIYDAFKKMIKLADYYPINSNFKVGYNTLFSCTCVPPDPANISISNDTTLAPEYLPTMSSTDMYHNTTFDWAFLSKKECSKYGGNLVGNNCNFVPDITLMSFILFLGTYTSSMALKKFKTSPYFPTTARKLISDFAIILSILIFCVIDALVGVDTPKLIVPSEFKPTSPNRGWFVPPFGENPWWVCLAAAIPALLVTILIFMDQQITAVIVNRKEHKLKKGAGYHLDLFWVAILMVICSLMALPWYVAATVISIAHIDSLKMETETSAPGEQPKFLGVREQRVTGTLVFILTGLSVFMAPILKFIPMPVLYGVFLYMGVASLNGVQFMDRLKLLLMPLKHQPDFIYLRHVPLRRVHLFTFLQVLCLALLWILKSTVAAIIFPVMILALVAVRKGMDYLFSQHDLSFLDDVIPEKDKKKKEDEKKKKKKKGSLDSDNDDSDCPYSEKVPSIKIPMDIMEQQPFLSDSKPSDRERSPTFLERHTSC

current change at a membrane potential of -25 mV when ND96 solution was replaced by ND96+HCO3- solution (voltage clamp, Xenopus oocytes): 6 to 7 times
B1: mouse IRBIT (IP3 receptor-binding protein; IP3R-binding protein released with inositol 1,4,5-trisphosphate), Q80SW1 1-530 (protein)
chain: MSMPDAMPLPGVGEELKQAKEIEDAEKYSFMATVTKAPKKQIQFADDMQEFTKFPTKTGRRSLSRSISQSSTDSYSSAASYTDSSDDEVSPREKQQTNSKGSSNFCVKNIKQAEFGRREIEIAEQDMSALISLRKRAQGEKPLAGAKIVGCTHITAQTAVLIETLCALGAQCRWSACNIYSTQNEVAAALAEAGVAVFAWKGESEDDFWWCIDRCVNMDGWQANMILDDGGDLTHWVYKKYPNVFKKIRGIVEESVTGVHRLYQLSKAGKLCVPAMNVNDSVTKQKFDNLYCCRESILDGLKRTTDVMFGGKQVVVCGYGEVGKGCCAALKALGAIVYITEIDPICALQACMDGFRVVKLNEVIRQVDVVITCTGNKNVVTREHLDRMKNSCIVCNMGHSNTEIDVTSLRTPELTWERVRSQVDHVIWPDGKRVVLLAEGRLLNLSCSTVPTFVLSITATTQALALIELYNAPEGRYKQDVYLLPKKMDEYVASLHLPSFDAHLTELTDDQAKYLGLNKNGPFKPNYYRY
